Data on eight variants can be found in article PMC4475061 (2015).

Sequences and labels used below:
B1: ULK3 fused to the VP16 activation domain [human] / CHMP1B WT fused to the Gal4 DNA-binding domain [human] (parent complex)
chain 1: MAGPGWGPPRLDGFILTERLGSGTYATVYKAYAKKDTREVVAIKCVAKKSLNKASVENLLTEIEILKGIRHPHIVQLKDFQWDSDNIYLIMEFCAGGDLSRFIHTRRILPEKVARVFMQQLASALQFLHERNISHLDLKPQNILLSSLEKPHLKLADFGFAQHMSPWDEKHVLRGSPLYMAPEMVCQRQYDARVDLWSMGVILYEALFGQPPFASRSFSELEEKIRSNRVIELPLRPLLSRDCRDLLQRLLERDPSRRISFQDFFAHPWVDLEHMPSGESLGRATALVVQAVKKDQEGDSAAALSLYCKALDFFVPALHYEVDAQRKEAIKAKVGQYVSRAEELKAIVSSSNQALLRQGTSARDLLREMARDKPRLLAALEVASAAMAKEEAAGGEQDALDLYQHSLGELLLLLAAEPPGRRRELLHTEVQNLMARAEYLKEQVKMRESRWEADTLDKEGLSESVRSSCTLQ
chain 2: MEKHLFNLKFAAKELSRSAKKCDKEEKAEKAKIKKAIQKGNMEVARIHAENAIRQKNQAVNFLRMSARVDAVAARVQTAVTMGKVTKSMAGVVKSMDATLKTMNLEKISALMDKFEHQFETLDVQTQQMEDTMSSTTTLTTPQNQVDMLLQEMADEAGLDLNMELPQGQTGSVGTSVASAEQDELSQRLARLRDQV
B2: CHMP1B WT fused to the Gal4 DNA-binding domain [human] / ULK3 fused to the VP16 activation domain [human] (parent complex)
chain 1: B1 chain 2
chain 2: B1 chain 1
B3: CHMP1B WT fused to the Gal4 DNA-binding domain [human] / CHMP1A (positive-control partner of the Gal4-CHMP1B constructs in the two-hybrid assay) [human] (parent complex)
chain 1: B1 chain 2
chain 2: MDDTLFQLKFTAKQLEKLAKKAEKDSKAEQAKVKKALLQKNVECARVYAENAIRKKNEGVNWLRMASRVDAVASKVQTAVTMKGVTKNMAQVTKALDKALSTMDLQKVSSVMDRFEQQVQNLDVHTSVMEDSMSSATTLTTPQEQVDSLIMQIAEENGLEVLDQLSQLPEGASAVGESSVRSQEDQLSRRLAALRN
B4: ULK3 fused to the VP16 activation domain [human] / CHMP1A fused to the Gal4 DNA-binding domain [human] (parent complex)
chain 1: B1 chain 1
chain 2: B3 chain 2

In the first experiment the parent is B1. Kind of experiment: yeast two-hybrid (β-galactosidase activity); read off a plot.
As for chain 1 M434D, the response is roughly 0.051.
Still for that read-out and setting: under chain 1 V338D stands roughly 0.061.

Variants of B2 are the subject of another experiment. The experiment is described as above.
For the variant chain 1 R191A, chain 1 L192A, chain 1 R193A, the response is roughly 0.028.

In another experiment the parent is B3. The experiment is described as above.
For the variant chain 1 L185A, chain 1 S186A, chain 1 Q187A, the response was roughly 0.62.
Still for that read-out and setting: under chain 1 D194A, chain 1 Q195A, chain 1 V196A stands roughly 0.48.
Same read-out and setting: as for chain 1 R188A, chain 1 L189A, the figure is roughly 0.77; as for chain 1 R191A, chain 1 L192A, chain 1 R193A, roughly 0.54.

Variants of B4 are the subject of another experiment. The description is as above.
chain 1 V338D: the response was roughly 0.075.
